One data set deals with T1, PaIDH2 (Pseudomonas aeruginosa, UniProt Q9I0L4).
T1 construct: gene idh; full length, 741 aa, 6xHis-tag, pET-28b(+) NdeI/XhoI, E. coli Rosetta (DE3), 81 kDa subunit, oligomer depends on salt (176-320 kDa)
T1 sequence (Q9I0L4 1-741): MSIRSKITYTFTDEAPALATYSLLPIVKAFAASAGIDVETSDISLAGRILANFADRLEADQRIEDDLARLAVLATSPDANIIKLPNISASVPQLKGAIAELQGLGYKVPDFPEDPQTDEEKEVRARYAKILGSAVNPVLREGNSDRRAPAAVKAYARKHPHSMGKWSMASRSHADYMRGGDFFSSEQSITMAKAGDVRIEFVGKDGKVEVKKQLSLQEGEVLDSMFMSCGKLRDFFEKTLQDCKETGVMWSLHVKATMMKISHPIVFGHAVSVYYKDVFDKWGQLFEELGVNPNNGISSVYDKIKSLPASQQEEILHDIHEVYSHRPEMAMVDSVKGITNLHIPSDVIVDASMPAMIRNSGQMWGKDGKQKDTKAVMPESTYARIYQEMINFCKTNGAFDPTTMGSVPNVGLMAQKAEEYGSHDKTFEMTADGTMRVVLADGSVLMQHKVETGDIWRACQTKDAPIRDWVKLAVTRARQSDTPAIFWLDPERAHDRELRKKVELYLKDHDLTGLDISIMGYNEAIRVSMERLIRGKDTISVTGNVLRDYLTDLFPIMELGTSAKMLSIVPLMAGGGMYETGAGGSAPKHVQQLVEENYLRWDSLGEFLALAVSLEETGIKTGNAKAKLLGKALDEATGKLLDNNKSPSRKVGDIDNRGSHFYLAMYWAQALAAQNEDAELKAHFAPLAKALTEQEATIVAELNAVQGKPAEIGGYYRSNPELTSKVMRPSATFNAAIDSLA
The experiment in a line: effect on IDH activity, product formation. To be noted: read-out: Relative Activity (%) / PaIDH2. The format is biochemical. The text has this: effect on IDH activity, product formation on PaIDH2

The target in a further data set is T2, PaIDH1 (Pseudomonas aeruginosa, UniProt Q9I0L5).
T2 construct: gene icd; full length, 418 aa, 6xHis-tag, pET-28b(+) NdeI/XhoI, E. coli Rosetta (DE3), 45 kDa subunit, homodimer
T2 sequence (Q9I0L5 1-418): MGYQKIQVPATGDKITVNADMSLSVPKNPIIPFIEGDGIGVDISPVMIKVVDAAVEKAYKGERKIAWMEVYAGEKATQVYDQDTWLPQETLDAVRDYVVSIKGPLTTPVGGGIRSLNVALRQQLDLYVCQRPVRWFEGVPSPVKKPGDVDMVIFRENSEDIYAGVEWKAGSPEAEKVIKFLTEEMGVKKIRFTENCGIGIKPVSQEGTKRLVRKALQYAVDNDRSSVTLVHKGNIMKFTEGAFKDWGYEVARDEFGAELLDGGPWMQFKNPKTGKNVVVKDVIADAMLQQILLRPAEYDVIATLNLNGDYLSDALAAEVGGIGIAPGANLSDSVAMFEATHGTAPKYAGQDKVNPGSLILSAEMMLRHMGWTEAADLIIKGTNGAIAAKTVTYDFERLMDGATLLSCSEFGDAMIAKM
The experiment in a line: effect on IDH activity, product formation. The format is biochemical. Conditions: read-out: Relative Activity (%) / PaIDH1. The text has this: effect on IDH activity, product formation on PaIDH1

Substrate in data set [1]: NC(=O)c1ccc[n+]([C@@H]2O[C@H](COP(=O)(O)OP(=O)(O)OC[C@H]3O[C@@H](n4cnc5c(N)ncnc54)[C@H](OP(=O)(O)O)[C@@H]3O)[C@@H](O)[C@H]2O)c1
The experiment in a line: purified protein. The format is biochemical, Pseudomonas aeruginosa. Conditions: 1 mM DL-isocitrate, 2 mM MnCl2, 50 mM Tris-HCl pH 7.5, 25 °C, varied: cofactor.

Substrate in data set [2]: O=C(O)CC(C(=O)O)C(O)C(=O)O
The experiment in a line: purified protein. It is filed as biochemical, Pseudomonas aeruginosa. To be noted: 500 μM NADP+, 2 mM MnCl2, 50 mM Tris-HCl pH 7.5, 25 °C.

The text below walks through data of article PMC10574006, “Two Different Isocitrate Dehydrogenases from Pseudomonas aeruginosa: Enzymology and Coenzyme-Evolutionary Implications” (International Journal of Molecular Sciences, 2023).

For `Nc1ncnc2c1ncn2[C@@H]1O[C@H](COP(=O)(O)OP(=O)(O)O)[C@@H](O)[C@H]1O` [ADP], the activity at 2000 µM at PaIDH2 amounted to 82.7 ± 3.37%; at PaIDH1, 81.8 ± 3.55%.
On to `Nc1ncnc2c1ncn2[C@@H]1O[C@H](COP(=O)(O)OP(=O)(O)OP(=O)(O)O)[C@@H](O)[C@H]1O` [ATP], for which the activity at 2000 µM at PaIDH2 worked out at 75.9 ± 5.92%.
Turning to `O=C(O)CC(=O)C(=O)O` [OAA], the activity at 2000 µM at PaIDH1 is 77.5 ± 4.56%.
Regarding `O=C(O)CCC(=O)C(=O)O` [α-KG], the activity at 2000 µM on PaIDH2 is 82.8 ± 5.65%; on PaIDH1, 79.5 ± 4.64%.

B1: PaIDH1 (Pseudomonas aeruginosa PAO1) (protein)
chain: T2 sequence (Q9I0L5 1-418)
notes: full length, 418 aa, 6xHis-tag, pET-28b(+) NdeI/XhoI, E. coli Rosetta (DE3), 45 kDa subunit, homodimer
As usually defined, the Km is the concentration of substrate that gives half-maximal velocity. As a reminder, the kcat is the number of substrate molecules converted per active site and unit of time at saturation. One may read the kcat/Km as the turnover number divided by the Michaelis constant. Take B1: in “purified protein [1]”, the Km is 20.00 ± 6.29 µM, the kcat is 105 ± 19.9 s⁻¹ and the catalytic efficiency (kcat/Km) amounted to 5.42e+06 ± 970000 M⁻¹ s⁻¹. Besides, in “purified protein [2]”, the Km was 14.41 ± 1.82 µM, the kcat worked out at 29.3 ± 10.9 s⁻¹ and the kcat/Km is 2.1e+06 ± 930000 M⁻¹ s⁻¹.

B2: PaIDH2 (Pseudomonas aeruginosa PAO1) (protein)
chain: T1 sequence (Q9I0L4 1-741)
notes: full length, 741 aa, 6xHis-tag, pET-28b(+) NdeI/XhoI, E. coli Rosetta (DE3), 81 kDa subunit, oligomer depends on salt (176-320 kDa)
In the case of B2, in “purified protein [1]”, the Km is 30.68 ± 2.73 µM, the kcat worked out at 134 ± 17 s⁻¹ and the kcat/Km is 4.42e+06 ± 1.13e+06 M⁻¹ s⁻¹. In “purified protein [2]”, the Km turned out to be 23.61 ± 1.21 µM, the kcat was 171 ± 6.77 s⁻¹ and the kcat/Km worked out at 7.26e+06 ± 130000 M⁻¹ s⁻¹.
